# Measurements reported in patent US20250340632A1 (OSE IMMUNOTHERAPEUTICS, published 2025).
# Like-named read-outs stand apart in the source and are kept apart here.
# B1: Kwar23 antibody (antibody, V domains shown)
# VH: EVQLQQSGAELVKPGASVKLSCTASGFNIKDYYIHWVQQRTEQGLEWIGRIDPEDGETKYAPKFQDKATITADTSSNTAYLHLSSLTSEDTAVYYCARWGAYWGQGTLVTVSS
# VL: QIVLTQSPAIMSASPGEKVTLTCSASSSVSSSYLYWYQQKPGSSPKLWIYSTSNLASGVPARFSGSGSGTSYSLTISSMEAEDAASYFCHQWSSYPRTFGAGTKLELK
# B2: 11B5 recombinant chimeric anti-SIRPg antibody (antibody, human IgG4 S228P, kappa, V domains shown)
# VH: EVQLVESGGDLVKPGGSLKLSCAASGFAFSDYYMYWVRQTPEKRLEWVATISDDGIYTYYPDSVKGRFTISRDNAKNNLFLQMSSLKSEDTAMYYCARGGYRDYYAMDYWGQGTSVTVSS
# VL: DIQMTQSPASLSASVGETVTITCRASENIYSYLAWYQQKQGKSPQLLVYNGITLAEGVPSRFSGSGSGTQFSLKINSLQPEDFGDYYCQHHYGSPRTFGGGTTLEIKR
# notes: Mouse VH/VL on human IgG4 (S228P) and human CL kappa
# B3: 26F10 recombinant chimeric anti-SIRPg antibody (antibody, human IgG4 S228P, kappa, V domains shown)
# VH: EVQLQQSGTELVRSGASVKLSCTTSGFNIKDYYMHWVKQRPEQGLEWIGWIDPENGDTEYAPKFQGKATMTADTSSNTAYLQLSSLTSEDTAVYYCNAYDGYYGAMDYWGQGTSVTVSS
# VL: DVVMPQTPLSLPVSLGDQASISCRSSQSLVHSNGNTYLHWYLQKPGQSPKLLIYKVSNRFSGVPDRFSGSGSGTDFTLKISRVEAEDLGVYFCSQNTHVPLTFGAGTKLELKR
# notes: as for B2
# B4: 13F7 recombinant chimeric anti-SIRPg antibody (antibody, human IgG4 S228P, kappa, V domains shown)
# VH: QVQLQQSGAELVRPGVSVKVSCKGSGYTFTDYAMHWVKQSHPKSLEWIGVIGTYYGDAYYNQNFKGKATMTVDKSSSTAYMELARLTSEDSAIYYCARRAGTSDWFAYWGQGTLVTVSA
# VL: NIVLTQSPASLAVSLGQRATISCRASESVDSYGNSFMHWYQQKPGQPPKLLIYRASNLESGIPARFSGSGSRTDFTLTINPVEADDVATYYCQQSNEDPPTFGGGTKLEIKR
# notes: as for B2
# B5: 2H9 recombinant chimeric anti-SIRPg antibody (antibody, human IgG4 S228P, kappa, V domains shown)
# VH: DVQLVESGGGLVQPGGSRKLSCAASGFTFSSFGMHWVRQAPEKGLEWVAYISSGSTTIYYADTVKGRFTISRDNPKNTLFLQMTSLRSEDTAMYFCARWTVVTNCFDYWGQGTTLTVSS
# VL: QIVLTQSPALMSASPGEKVTMTCSASSSISSMYWYQQKPRSSPKPWIYLTSNLASGVPARFSGSGSGTSYSLTISSMEAEDAATYYCQQWSSNLTFGAGTKLELKR
# notes: Mouse VH/VL on human IgG4 (S228P)
# B6: 3H8 recombinant chimeric anti-SIRPg antibody (antibody, human IgG4 S228P, kappa, V domains shown)
# VH: QIQLVQSGPELKKPGETVNISCMASGYSFTNYGMNWVKQAPGKGLKWMGWINTYTGEPTYADDFKGRFAFSLETSASTAYLQINNLKNEDMATYFCARQPYDYVPSFPYWGQGTLVTVSA
# VL: DIVMTQSHKFMSTSVGDRVNITCKASQDVSTAVAWYQLKPGQSPKLLIYWASIRHTGVPDRFTGSGSGTDYTLTISSVQAEHLALYYCQQHYSTPWTFGGGTKLEIKR
# notes: as for B2
# Assays:
# [1] = biological target: human SIRPg protein at the surface of cells (human T lymphocyte Jurkat cell line; T cells in PBMC) (human) (UniProt Q9P1W8); assay: cytofluorometry (MFI) on human Jurkat cells, ED50
# [2] = biological target: human SIRPg protein at the surface of cells (human T lymphocyte Jurkat cell line; T cells in PBMC) (human) (UniProt Q9P1W8); assay: cytofluorometry on Jurkat cells, % of positive cells (not the MFI readout of Table 5)
# [3] = biological target: T1, recombinant human SIRPa protein with His Tag (#11612-H08H, Sino Biological) (human, UniProt P78324 31-370); assay: ELISA on immobilized SIRPa, ED50
# T1 construct: Bought protein; also called human SIRPa His; SIRPa-His
# [4] = biological target: human SIRPa on SIRPa positive U937 human monocyte cell line (human) (UniProt P78324); assay: binding to U937 cells expressing SIRPa, ED50
# [5] = biological target: T2, recombinant human SIRPg protein with His Tag (#11828-H08H, Sino Biological) (human, UniProt Q9P1W8 29-360, biotinylated in the ELISA binding assay (sites not given)); assay: SIRPg binding ELISA, DO 450 nm (legend: immobilized SIRPg-His at 1 µg/ml; method 1.4: captured antibody, biotinylated SIRPg)
# T2 construct: Bought protein; also called human SIRPg His; SIRPg-His
# [6] = biological target: T2, recombinant human SIRPg protein with …; assay: as above; remark: listed apart in the source
# [7] = biological target: T1, recombinant human SIRPa protein with …; assay: competition ELISA on immobilized SIRPa-His against biotinylated CD47-Fc at 3 µg/ml, streptavidin-peroxidase detection [lower graph]
# [8] = biological target: T3, human SIRPg protein at the surface of cells (human T lymphocyte Jurkat cell line; T cells in PBMC) (human, UniProt Q9P1W8 29-387); assay: cytofluorometry (MFI) on human Jurkat cells, ED50
# T3 construct: whole, on cells; also called SIRPg on Jurkat cells
# Experimental: To measure binding of mouse anti-hSIRPg on human cell lines, cells were first washed in cold-PSE (Phosphate Buffer Saline with 2% of heat-inactivated bovine serum, 2 mM EDTA), blocked for 30 min at room temperature with a mix of 50-fold diluted human Fc-block (#564220, BD Pharmingen) and 20-fold diluted/heat-inactivated human serum (SAB, # H4522-100, Sigma Aldrich) and then incubated for 10 min on ice to slow the cell metabolism. Antibodies in range were incubated for 30 min on ice, and cells were washed with cold-PSE before staining for 30 min on ice with an Alexa 647-labelled goat anti-mouse IgG at 5 μg/ml (#A21236; Fisher Scientific, Illkirch, France). Samples were analyzed on CytoFlex cytofluorometer (Beckman Coulter France, Villepinte).
molecule,measurement,setting,value
"LSB2.20 antibody (Biolegend, reference 336602)",EC50,[1],6.97 µg/mL
same,EC50 (read off the curve),[2],0.2 µg/mL
OX119 antibody (SantaCruz reference sc-53114),EC50,[1],3.88 µg/mL
same,EC50 (read off the curve),[2],0.2 µg/mL
B1,EC50,[3],0.00469 µg/mL
same,EC50,[4],0.0719 µg/mL
same,EC50 (read off the curve),[5],~0.01 µg/mL
same,EC50 (read off the curve),[6],~0.006 µg/mL
same,IC50 (read off the curve),[7],~0.7 µg/mL
B2,EC50,[8],0.195 µg/mL
same,EC50 (read off the curve),[5],~0.007 µg/mL
same,EC50 (read off the curve),[6],~0.006 µg/mL
B3,EC50,[8],0.156 µg/mL
same,EC50 (read off the curve),[5],~0.02 µg/mL
B4,EC50,[8],0.281 µg/mL
B5,EC50,[8],0.426 µg/mL
B6,EC50,[8],0.083 µg/mL
